The target in this assay is T1, phosphorylated NarL (E. coli nitrate-responsive transcription regulator), wild type (E. coli K12), P0AF28.
T1 chain: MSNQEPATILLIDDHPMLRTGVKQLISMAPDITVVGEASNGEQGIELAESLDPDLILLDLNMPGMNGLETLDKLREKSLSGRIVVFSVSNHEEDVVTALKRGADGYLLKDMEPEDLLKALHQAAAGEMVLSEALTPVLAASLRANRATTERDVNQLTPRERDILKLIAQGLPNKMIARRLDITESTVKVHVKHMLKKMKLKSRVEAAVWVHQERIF
Put plainly: cryo-EM structure. To be noted: remark: other sources report otherwise.

The results in this text go back to paper PMC10853779.

B1: phosphorylated NarL (E. coli nitrate-responsive transcription regulator), wild type, P0AF28 1-216 (natural protein)
chain: T1 chain
The stoichiometry N is a count of units in the complex or per binding partner. For the molecule B1, the stoichiometry N worked out at 2.
